Measured values: patent US6989256 (UNIVERSITY OF MEDICINE AND DENTISTRY OF NEW JERSEY, dated 2006)

Target: T1, FLAG epitope-tagged Mtt1p (yeast (S. cerevisiae), UniProt P32644 1-1121, limits assumed)
T1 construct: Used as a yeast cytoplasmic extract, not as purified protein; also called Flag-Mtt1p; Modulator of Translation Termination
T1 sequence (looked up): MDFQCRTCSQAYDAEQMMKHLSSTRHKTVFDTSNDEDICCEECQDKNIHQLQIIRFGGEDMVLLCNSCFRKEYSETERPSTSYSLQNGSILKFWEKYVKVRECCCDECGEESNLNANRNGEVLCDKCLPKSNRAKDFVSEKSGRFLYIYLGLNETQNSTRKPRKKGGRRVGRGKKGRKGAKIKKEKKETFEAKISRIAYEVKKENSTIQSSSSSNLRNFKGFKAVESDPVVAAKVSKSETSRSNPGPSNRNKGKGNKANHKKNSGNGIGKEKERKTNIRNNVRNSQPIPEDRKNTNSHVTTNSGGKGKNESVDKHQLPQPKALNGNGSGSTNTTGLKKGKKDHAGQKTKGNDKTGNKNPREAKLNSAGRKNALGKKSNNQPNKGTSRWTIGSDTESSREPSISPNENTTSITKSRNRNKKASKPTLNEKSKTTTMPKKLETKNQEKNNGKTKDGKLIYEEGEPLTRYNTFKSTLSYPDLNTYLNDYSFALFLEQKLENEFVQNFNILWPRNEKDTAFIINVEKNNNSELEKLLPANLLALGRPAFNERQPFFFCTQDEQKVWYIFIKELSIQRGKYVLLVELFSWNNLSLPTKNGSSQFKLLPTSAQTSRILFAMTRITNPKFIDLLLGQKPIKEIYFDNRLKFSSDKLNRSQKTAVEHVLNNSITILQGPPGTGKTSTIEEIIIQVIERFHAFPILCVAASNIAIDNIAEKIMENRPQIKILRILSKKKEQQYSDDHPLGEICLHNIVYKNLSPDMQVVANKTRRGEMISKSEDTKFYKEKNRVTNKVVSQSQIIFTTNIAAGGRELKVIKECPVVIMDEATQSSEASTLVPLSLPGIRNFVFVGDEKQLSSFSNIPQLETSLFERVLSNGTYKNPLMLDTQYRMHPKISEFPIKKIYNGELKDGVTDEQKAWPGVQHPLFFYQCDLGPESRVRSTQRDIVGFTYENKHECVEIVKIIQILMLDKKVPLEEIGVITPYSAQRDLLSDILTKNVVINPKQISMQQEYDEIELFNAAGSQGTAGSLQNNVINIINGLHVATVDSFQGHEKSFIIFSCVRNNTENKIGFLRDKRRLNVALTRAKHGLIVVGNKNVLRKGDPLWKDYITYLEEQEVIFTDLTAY
Assay: GST pull-down from yeast cytoplasmic extract, anti-FLAG immunoblot
Procedure: Total RNA was prepared and subjected to RNA blotting analysis, using a probe for CYH2 mRNA. Figure 4: FIG. 4 Mtt1 interacts withe eRF3. Cytoplasmic extracts from a yeast strain BJ3505 transformed with either pG-1 (vector) or pG-1 FLAGMTT1 (Flag-Mtt1p) were prepared in IBTB and incubated with 30 μl GST, GST-eRF1. GST-eRF3, GST-eRF3NM or GST-eRF3C sepharose-protein complexes. The sepharose-protein complexes were washed 2 times in IBTB (see materials and methods), resuspended in SDS-PAGE loading buffer, separated on an 8% SDS-PAGE gel and immunoblotted using anti-FLAG antibody.
Since deleting the MTT1 gene also promotes nonsense suppression of the tyr7-1 and leu2-2 alleles, Mtt1p also interacts with the peptidyl release factors. To test this, eRF1 and eRF3 were individually expressed in *E. coli* as glutathione-S-transferase (GST) fusion proteins and purified using glutathione sepharose beads. The purified GST-RF (release factor) fusion proteins associated with the glutathione sepharose beads were added to a yeast cytoplasmic extract containing a FLAG epitope-tagged Mtt1p (see Experimental Procedures). Following incubation, the GST-RFs and associated proteins were purified by affinity chromatography and subjected to SDS-PAGE. Immunoblotting was performed and the presence of the Flag-Mtt1p was assayed using an antibody against the FLAG epitope.

B1: GST-eRF1 (other, yeast (S. cerevisiae), UniProt P12385 1-437, looked up)
chain: MDNEVEKNIEIWKVKKLVQSLEKARGNGTSMISLVIPPKGQIPLYQKMLTDEYGTASNIKSRVNRLSVLSAITSTQQKLKLYNTLPKNGLVLYCGDIITEDGKEKKVTFDIEPYKPINTSLYLCDNKFHTEVLSELLQADDKFGFIVMDGQGTLFGSVSGNTRTVLHKFTVDLPKKHGRGGQSALRFARLREEKRHNYVRKVAEVAVQNFITNDKVNVKGLILAGSADFKTDLAKSELFDPRLACKVISIVDVSYGGENGFNQAIELSAEALANVKYVQEKKLLEAYFDEISQDTGKFCYGIDDTLKALDLGAVEKLIVFENLETIRYTFKDAEDNEVIKFAEPEAKDKSFAIDKATGQEMDVVSEEPLIEWLAANYKNFGATLEFITDKSSEGAQFVTGFGGIGAMLRYKVNFEQLVDESEDEYYDEDEGSDYDFI
notes: also called GST-RF1; GST-RF; not shown: glutathione-S-transferase (GST) from vector pGEX2T
- binding result: no binding
